Patent US8883964B2, “Compositions comprising modified collagen and uses therefor” (The Johns Hopkins University, priority 2004, dated 2014)
Square brackets hold non-standard residues; d marks the D form. Ends that are not written are not given here. Hyp = O=C(O)[C@@H]1C[C@@H](O)CN1

Experiments:
[1] = Dynamic light scattering of CMP functionalized gold NPs; type: physicochemical
Method: The thickness of the peptide layer on the gold NP surface was determined by dynamic light scattering (DLS) (FIG. 15). The peptide layer thicknesses of NP-1, NP-2 and NP-3 were 2.0 nm, 3.65 nm and 6.85 nm, respectively (Table 3).
Purified Cys-CMP (peptides 1′˜4′) (0.5 mL, 500 μM) was added to gold nanoparticle solution (5 mL, 17 nM), and the reaction mixture was incubated at room temperature for twenty-four hours. Excess CMPs were removed by repeated centrifugation and washing in deionized water.

[2] = Measurement of number of peptides per NP (passivation number); type: physicochemical
Method: The average number of CMPs on the NPs was determined by measuring the concentrations of free CMPs remaining in solution after the removal of the NPs from a series of incubation mixtures with varying CMP/NP ratios (FIG. 16 and Table 3).^36 The numbers of CMPs immobilized on the NP surfaces were 582, 444, and 399 for NP-1, NP-2, and NP-3, respectively. […] This may have been caused by surface anchoring of the chain ends that prohibited the staggered arrangement of the peptide chains required for the formation of triple helix.
Seven 10 μM Cys-CMP solutions with varying concentrations of citrate-stabilized gold NP (2˜14 nM) were prepared. The mixtures were incubated for 2 hours at 25° C. and the gold NPs were removed by centrifugation. The concentrations of free peptides remaining in the supernatant were determined from the UV-Vis absorbance at 215 nm with citrate ion background subtraction. The number of peptides per Au NP was calculated from the slope of the linear fit of the data points. (FIG. 17)

type I collagen fibers = target: T1, type I collagen fibers (Bos taurus, UniProt P02453+P02465); assay: TEM analysis of NP binding to reconstituted type I collagen fibers; parameters: species or system bovine; conditions: phosphate buffer at 25° C.
T1 construct: natural collagen (acid soluble, bovine type I); purchased Sigma
Method: Moreover, NP-3 seemed to bind to defined locations within the gap regions along the fiber axis (FIG. 19C). Due to the large particle size and limitations of transmission electron microscopy resolution, the exact locations of these binding sites could not be determined. Twice as many NP-3 particles per unit area was found in the gap regions (dark bands) than on the overlap regions (light bands) of the collagen fibers. This difference was abolished at incubation temperatures above 40° C. (FIG. 20).
Collagen fibers were regenerated by mixing 0.5 mL of acid soluble type I collagen (1 mg/mL) in 50 mM acetic acid solution with 1 mL of sodium phosphate buffer (10 mM, pH 8.25). The mixture was incubated at room temperature for 12 hours.
A drop (8 μL) of type I collagen solution (0.3 mg/mL in PBS containing 1% BSA) was added to a holey carbon TEM grid. NP-3 solution (3 nM in PBS containing 1% BSA) was added to the grid and incubated for 5 minutes at room temperature or at 40° C., followed by washing with deionized water. The collagen fibers were stained with uranyl acetate (1%).

T1 sequence (P02453 162-1217 limits assumed): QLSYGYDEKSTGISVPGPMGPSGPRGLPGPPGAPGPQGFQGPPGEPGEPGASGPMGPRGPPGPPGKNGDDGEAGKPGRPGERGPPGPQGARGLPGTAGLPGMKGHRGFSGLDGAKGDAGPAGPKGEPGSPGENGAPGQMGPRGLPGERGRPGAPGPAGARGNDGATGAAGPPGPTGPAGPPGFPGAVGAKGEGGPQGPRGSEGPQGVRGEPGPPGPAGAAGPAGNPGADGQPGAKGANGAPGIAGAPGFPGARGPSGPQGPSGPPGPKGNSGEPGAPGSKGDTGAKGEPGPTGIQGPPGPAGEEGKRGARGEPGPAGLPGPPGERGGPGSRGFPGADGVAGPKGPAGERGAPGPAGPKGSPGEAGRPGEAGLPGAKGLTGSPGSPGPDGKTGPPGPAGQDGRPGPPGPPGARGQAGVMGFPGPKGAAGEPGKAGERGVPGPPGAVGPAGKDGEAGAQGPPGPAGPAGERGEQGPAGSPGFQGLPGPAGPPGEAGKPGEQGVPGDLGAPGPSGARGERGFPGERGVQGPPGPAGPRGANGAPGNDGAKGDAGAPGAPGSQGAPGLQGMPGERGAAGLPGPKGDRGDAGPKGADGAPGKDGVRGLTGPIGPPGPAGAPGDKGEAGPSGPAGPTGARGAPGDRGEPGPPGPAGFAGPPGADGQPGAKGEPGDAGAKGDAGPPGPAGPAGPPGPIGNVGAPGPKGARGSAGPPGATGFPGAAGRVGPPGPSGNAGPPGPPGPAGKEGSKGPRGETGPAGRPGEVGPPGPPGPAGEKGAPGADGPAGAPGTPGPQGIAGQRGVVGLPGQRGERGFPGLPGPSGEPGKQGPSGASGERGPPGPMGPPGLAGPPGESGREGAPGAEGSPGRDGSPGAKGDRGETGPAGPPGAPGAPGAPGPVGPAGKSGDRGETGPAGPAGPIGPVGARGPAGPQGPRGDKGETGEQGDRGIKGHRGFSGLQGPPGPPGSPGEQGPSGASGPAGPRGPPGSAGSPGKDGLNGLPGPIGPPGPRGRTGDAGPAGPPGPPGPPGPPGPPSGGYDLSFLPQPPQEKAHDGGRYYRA
T1 sequence (P02465 80-1117 limits assumed): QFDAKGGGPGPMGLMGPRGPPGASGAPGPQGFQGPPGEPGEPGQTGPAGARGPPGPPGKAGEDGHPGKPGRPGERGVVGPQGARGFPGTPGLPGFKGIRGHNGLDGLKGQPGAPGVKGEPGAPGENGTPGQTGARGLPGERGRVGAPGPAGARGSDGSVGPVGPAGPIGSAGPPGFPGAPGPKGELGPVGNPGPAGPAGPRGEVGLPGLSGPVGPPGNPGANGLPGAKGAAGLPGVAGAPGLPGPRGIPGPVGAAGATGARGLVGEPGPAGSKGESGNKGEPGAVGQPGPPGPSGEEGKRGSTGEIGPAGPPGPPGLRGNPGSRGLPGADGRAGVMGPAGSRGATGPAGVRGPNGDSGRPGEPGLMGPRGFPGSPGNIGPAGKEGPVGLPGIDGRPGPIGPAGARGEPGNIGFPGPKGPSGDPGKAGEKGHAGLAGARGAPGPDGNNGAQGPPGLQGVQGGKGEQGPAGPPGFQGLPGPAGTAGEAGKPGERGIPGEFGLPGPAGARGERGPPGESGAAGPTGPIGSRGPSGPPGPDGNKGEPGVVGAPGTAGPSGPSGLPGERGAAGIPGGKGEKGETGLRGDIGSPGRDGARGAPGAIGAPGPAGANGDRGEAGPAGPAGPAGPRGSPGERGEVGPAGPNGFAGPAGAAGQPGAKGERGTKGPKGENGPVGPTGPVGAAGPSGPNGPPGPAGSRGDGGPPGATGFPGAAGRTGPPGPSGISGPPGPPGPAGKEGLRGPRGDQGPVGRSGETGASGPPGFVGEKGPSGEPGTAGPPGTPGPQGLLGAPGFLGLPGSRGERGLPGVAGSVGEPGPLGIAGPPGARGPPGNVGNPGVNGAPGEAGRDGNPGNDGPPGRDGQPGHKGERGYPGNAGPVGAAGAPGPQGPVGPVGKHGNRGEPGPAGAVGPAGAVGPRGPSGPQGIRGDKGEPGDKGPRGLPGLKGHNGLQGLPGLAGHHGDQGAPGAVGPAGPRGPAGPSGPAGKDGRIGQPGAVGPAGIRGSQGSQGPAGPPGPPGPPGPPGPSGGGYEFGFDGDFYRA

binding to type I collagen fibers (type I collagen fibers): little binding
Substance: NP-4: gold nanoparticle functionalized with scrambled peptide 4′ (CGPG[Hyp]P[Hyp]PPGPP[Hyp]G[Hyp][Hyp]P[Hyp]G[Hyp]GG; also: N-terminal Cys bound to gold nanoparticle surface)
Particle Size by DLS [1]: 16.2 ± 3.1 nm
Measured Peptide layer thickness ([1]; DLS): 1.5 nm
Number of peptides per NP [2]: 524 ± 59
